Experimental data published in the Human Domainome abundance scans (Beltran et al. 2025).
± gives the uncertainty stated by the source.

B1: DnaJ homolog subfamily C member 5, residues 16 to 77; numbered along this chain, Q9H3Z4 (parent)
chain: LYHVLGLDKNATSDDIKKSYRKLALKYHPDKNPDNPEAADKFKEINNAHAILTDATKRNIYD

Variants of: B1
Assay: abundance fitness (aPCA) (normalised: wild type 0, dead -1); higher = more abundant; growth selection in yeast, the domain comes from the species named
Settings: Homo sapiens

Variant	abundance fitness
LYHVLGLDKNATSDDIKKSYRKLALKYHPDKNPDNPEKADKFKEINNAHAILTDATKRNIYD	-0.338 ± 0.12
LYHVLGLDKNATSDDIKKSYRKLALKYHPDKNPDNPEDADKFKEINNAHAILTDATKRNIYD	-0.137 ± 0.099
LYHVLGLDKNATSDDIKKSYRKLALKYHPDKNPDNPEIADKFKEINNAHAILTDATKRNIYD	-0.043 ± 0.12
LYHVLGLDKNATSDDIKKSYRKLALKYHPDKNPDNPEHADKFKEINNAHAILTDATKRNIYD	-0.169 ± 0.13
LYHVLGLDKNATSDDIKKSYRKLALKYHPDKNPDNPELADKFKEINNAHAILTDATKRNIYD	-0.243 ± 0.069
LYHVLGLDKNATSDDIKKSYRKLALKYHPDKNPDNPEFADKFKEINNAHAILTDATKRNIYD	-0.194 ± 0.15
LYHVLGLDKNATSDDIKKSYRKLALKYHPDKNPDNPEEADKFKEINNAHAILTDATKRNIYD	-0.193 ± 0.14
LYHVLGLDKNATSDDIKKSYRKLALKYHPDKNPDNPEPADKFKEINNAHAILTDATKRNIYD	-0.559 ± 0.14
LYHVLGLDKNATSDDIKKSYRKLALKYHPDKNPDNPEYADKFKEINNAHAILTDATKRNIYD	-0.132 ± 0.14
LYHVLGLDKNATSDDIKKSYRKLALKYHPDKNPDNPETADKFKEINNAHAILTDATKRNIYD	-0.292 ± 0.11
LYHVLGLDKNATSDDIKKSYRKLALKYHPDKNPDNPEMADKFKEINNAHAILTDATKRNIYD	-0.13 ± 0.097
LYHVLGLDKNATSDDIKKSYRKLALKYHPDKNPDNPEWADKFKEINNAHAILTDATKRNIYD	-0.305 ± 0.073
LYHVLGLDKNATSDDIKKSYRKLALKYHPDKNPDNPERADKFKEINNAHAILTDATKRNIYD	-0.279 ± 0.063
LYHVLGLDKNATSDDIKKSYRKLALKYHPDKNPDNPENADKFKEINNAHAILTDATKRNIYD	-0.296 ± 0.17
LYHVLGLDKNATSDDIKKSYRKLALKYHPDKNPDNPESADKFKEINNAHAILTDATKRNIYD	-0.088 ± 0.092
LYHVLGLDKNATSDDIKKSYRKLALKYHPDKNPDNPECADKFKEINNAHAILTDATKRNIYD	-0.401 ± 0.16
LYHVLGLDKNATSDDIKKSYRKLALKYHPDKNPDNPEQADKFKEINNAHAILTDATKRNIYD	-0.371 ± 0.12
LYHVLGLDKNATSDDIKKSYRKLALKYHPDKNPDNPCAADKFKEINNAHAILTDATKRNIYD	-0.206 ± 0.074
LYHVLGLDKNATSDDIKKSYRKLALKYHPDKNPDNPWAADKFKEINNAHAILTDATKRNIYD	-0.171 ± 0.068
LYHVLGLDKNATSDDIKKSYRKLALKYHPDKNPDNPVAADKFKEINNAHAILTDATKRNIYD	0.041 ± 0.054
LYHVLGLDKNATSDDIKKSYRKLALKYHPDKNPDNPFAADKFKEINNAHAILTDATKRNIYD	-0.01 ± 0.09
LYHVLGLDKNATSDDIKKSYRKLALKYHPDKNPDNPHAADKFKEINNAHAILTDATKRNIYD	0.004 ± 0.18

Variant	abundance fitness
LYHVLGLDKNATSDDIKKSYRKLALKYHPDKNPDNPLAADKFKEINNAHAILTDATKRNIYD	-0.172 ± 0.062
LYHVLGLDKNATSDDIKKSYRKLALKYHPDKNPDNPQAADKFKEINNAHAILTDATKRNIYD	0.079 ± 0.081
LYHVLGLDKNATSDDIKKSYRKLALKYHPDKNPDNPRAADKFKEINNAHAILTDATKRNIYD	-0.117 ± 0.05
LYHVLGLDKNATSDDIKKSYRKLALKYHPDKNPDNPIAADKFKEINNAHAILTDATKRNIYD	-0.406 ± 0.17
LYHVLGLDKNATSDDIKKSYRKLALKYHPDKNPDNPYAADKFKEINNAHAILTDATKRNIYD	-0.226 ± 0.11
LYHVLGLDKNATSDDIKKSYRKLALKYHPDKNPDNPTAADKFKEINNAHAILTDATKRNIYD	-0.011 ± 0.071
LYHVLGLDKNATSDDIKKSYRKLALKYHPDKNPDNPGAADKFKEINNAHAILTDATKRNIYD	-0.063 ± 0.059
LYHVLGLDKNATSDDIKKSYRKLALKYHPDKNPDNPDAADKFKEINNAHAILTDATKRNIYD	-0.238 ± 0.13
LYHVLGLDKNATSDDIKKSYRKLALKYHPDKNPDNPMAADKFKEINNAHAILTDATKRNIYD	-0.217 ± 0.13
LYHVLGLDKNATSDDIKKSYRKLALKYHPDKNPDNPSAADKFKEINNAHAILTDATKRNIYD	0.036 ± 0.069
LYHVLGLDKNATSDDIKKSYRKLALKYHPDKNPDNPNAADKFKEINNAHAILTDATKRNIYD	0.042 ± 0.17
LYHVLGLDKNATSDDIKKSYRKLALKYHPDKNPDNPPAADKFKEINNAHAILTDATKRNIYD	-0.441 ± 0.12
LYHVLGLDKNATSDDIKKSYRKLALKYHPDKNPVNPEAADKFKEINNAHAILTDATKRNIYD	-0.591 ± 0.056
LYHVLGLDKNATSDDIKKSYRKLALKYHPDKNPYNPEAADKFKEINNAHAILTDATKRNIYD	-0.355 ± 0.095
LYHVLGLDKNATSDDIKKSYRKLALKYHPDKNPTNPEAADKFKEINNAHAILTDATKRNIYD	-0.257 ± 0.096
LYHVLGLDKNATSDDIKKSYRKLALKYHPDKNPWNPEAADKFKEINNAHAILTDATKRNIYD	-0.944 ± 0.12
LYHVLGLDKNATSDDIKKSYRKLALKYHPDKNPDGPEAADKFKEINNAHAILTDATKRNIYD	-0.281 ± 0.072
LYHVLGLDKNATSDDIKKSYRKLALKYHPDKNPDSPEAADKFKEINNAHAILTDATKRNIYD	-0.041 ± 0.089
LYHVLGLDKNATSDDIKKSYRKLALKYHPDKNPDTPEAADKFKEINNAHAILTDATKRNIYD	-0.143 ± 0.086
LYHVLGLDKNATSDDIKKSYRKLALKYHPDKNPDMPEAADKFKEINNAHAILTDATKRNIYD	-0.431 ± 0.088
LYHVLGLDKNATSDDIKKSYRKLALKYHPDKNPDQPEAADKFKEINNAHAILTDATKRNIYD	-0.265 ± 0.1
LYHVLGLDKNATSDDIKKSYRKLALKYHPDKNPDEPEAADKFKEINNAHAILTDATKRNIYD	-0.235 ± 0.094

Variant	abundance fitness
LYHVLGLDKNATSDDIKKSYRKLALKYHPDKNPDCPEAADKFKEINNAHAILTDATKRNIYD	-0.462 ± 0.19
LYHVLGLDKNATSDDIKKSYRKLALKYHPDKNPDAPEAADKFKEINNAHAILTDATKRNIYD	-0.184 ± 0.082
LYHVLGLDKNATSDDIKKSYRKLALKYHPDKNPDIPEAADKFKEINNAHAILTDATKRNIYD	-0.255 ± 0.14
LYHVLGLDKNATSDDIKKSYRKLALKYHPDKNPDKPEAADKFKEINNAHAILTDATKRNIYD	-0.194 ± 0.11
LYHVLGLDKNATSDDIKKSYRKLALKYHPDKNPDVPEAADKFKEINNAHAILTDATKRNIYD	-0.255 ± 0.061
LYHVLGLDKNATSDDIKKSYRKLALKYHPDKNPDRPEAADKFKEINNAHAILTDATKRNIYD	-0.282 ± 0.082
LYHVLGLDKNATSDDIKKSYRKLALKYHPDKNPDHPEAADKFKEINNAHAILTDATKRNIYD	-0.197 ± 0.094
LYHVLGLDKNATSDDIKKSYRKLALKYHPDKNPDWPEAADKFKEINNAHAILTDATKRNIYD	-0.317 ± 0.095
LYHVLGLDKNATSDDIKKSYRKLALKYHPDKNPDFPEAADKFKEINNAHAILTDATKRNIYD	-0.309 ± 0.17
LYHVLGLDKNATSDDIKKSYRKLALKYHPDKNPDNPEAYDKFKEINNAHAILTDATKRNIYD	0.082 ± 0.14
LYHVLGLDKNATSDDIKKSYRKLALKYHPDKNPDNPEANDKFKEINNAHAILTDATKRNIYD	0.003 ± 0.13
LYHVLGLDKNATSDDIKKSYRKLALKYHPDKNPDNPEAGDKFKEINNAHAILTDATKRNIYD	-0.032 ± 0.062
LYHVLGLDKNATSDDIKKSYRKLALKYHPDKNPDNPEAQDKFKEINNAHAILTDATKRNIYD	-0.227 ± 0.11
LYHVLGLDKNATSDDIKKSYRKLALKYHPDKNPDNPEAEDKFKEINNAHAILTDATKRNIYD	-0.14 ± 0.084
LYHVLGLDKNATSDDIKKSYRKLALKYHPDKNPDNPEADDKFKEINNAHAILTDATKRNIYD	0.033 ± 0.13
LYHVLGLDKNATSDDIKKSYRKLALKYHPDKNPDNPEAIDKFKEINNAHAILTDATKRNIYD	0.064 ± 0.16
LYHVLGLDKNATSDDIKKSYRKLALKYHPDKNPDNPEAVDKFKEINNAHAILTDATKRNIYD	-0.01 ± 0.082
LYHVLGLDKNATSDDIKKSYRKLALKYHPDKNPDNPEAPDKFKEINNAHAILTDATKRNIYD	-0.301 ± 0.19
LYHVLGLDKNATSDDIKKSYRKLALKYHPDKNPDNPEARDKFKEINNAHAILTDATKRNIYD	-0.021 ± 0.068
LYHVLGLDKNATSDDIKKSYRKLALKYHPDKNPDNPEATDKFKEINNAHAILTDATKRNIYD	-0.427 ± 0.21
LYHVLGLDKNATSDDIKKSYRKLALKYHPDKNPDNPEAMDKFKEINNAHAILTDATKRNIYD	-0.126 ± 0.14
LYHVLGLDKNATSDDIKKSYRKLALKYHPDKNPDNPEASDKFKEINNAHAILTDATKRNIYD	-0.176 ± 0.086

Variant	abundance fitness
LYHVLGLDKNATSDDIKKSYRKLALKYHPDKNPDNPEAFDKFKEINNAHAILTDATKRNIYD	-0.56 ± 0.2
LYHVLGLDKNATSDDIKKSYRKLALKYHPDKNPDNPEAKDKFKEINNAHAILTDATKRNIYD	0.095 ± 0.092
LYHVLGLDKNATSDDIKKSYRKLALKYHPDKNPDNPEALDKFKEINNAHAILTDATKRNIYD	0.014 ± 0.083
LYHVLGLDKNATSDDIKKSYRKLALKYHPDKNPDNPEACDKFKEINNAHAILTDATKRNIYD	0.01 ± 0.11
LYHVLGLDKNATSDDIKKSYRKLALKYHPDKNPDNPEAAPKFKEINNAHAILTDATKRNIYD	-0.258 ± 0.11
LYHVLGLDKNATSDDIKKSYRKLALKYHPDKNPDNPEAAWKFKEINNAHAILTDATKRNIYD	0.046 ± 0.084
LYHVLGLDKNATSDDIKKSYRKLALKYHPDKNPDNPEAALKFKEINNAHAILTDATKRNIYD	0.212 ± 0.085
LYHVLGLDKNATSDDIKKSYRKLALKYHPDKNPDNPEAANKFKEINNAHAILTDATKRNIYD	-0.271 ± 0.47
LYHVLGLDKNATSDDIKKSYRKLALKYHPDKNPDNPEAAHKFKEINNAHAILTDATKRNIYD	0.156 ± 0.15
LYHVLGLDKNATSDDIKKSYRKLALKYHPDKNPDNPEAAEKFKEINNAHAILTDATKRNIYD	-0.171 ± 0.11
LYHVLGLDKNATSDDIKKSYRKLALKYHPDKNPDNPEAAMKFKEINNAHAILTDATKRNIYD	0.255 ± 0.11
LYHVLGLDKNATSDDIKKSYRKLALKYHPDKNPDNPEAAIKFKEINNAHAILTDATKRNIYD	0.224 ± 0.13
LYHVLGLDKNATSDDIKKSYRKLALKYHPDKNPDNPEAACKFKEINNAHAILTDATKRNIYD	-0.012 ± 0.095
LYHVLGLDKNATSDDIKKSYRKLALKYHPDKNPDNPEAARKFKEINNAHAILTDATKRNIYD	0.271 ± 0.071
LYHVLGLDKNATSDDIKKSYRKLALKYHPDKNPDNPEAAFKFKEINNAHAILTDATKRNIYD	0.029 ± 0.18
LYHVLGLDKNATSDDIKKSYRKLALKYHPDKNPDNPEAAKKFKEINNAHAILTDATKRNIYD	0.385 ± 0.11
LYHVLGLDKNATSDDIKKSYRKLALKYHPDKNPDNPEAAQKFKEINNAHAILTDATKRNIYD	-0.03 ± 0.22
LYHVLGLDKNATSDDIKKSYRKLALKYHPDKNPDNPEAAAKFKEINNAHAILTDATKRNIYD	0.137 ± 0.086
LYHVLGLDKNATSDDIKKSYRKLALKYHPDKNPDNPEAATKFKEINNAHAILTDATKRNIYD	0.054 ± 0.085
LYHVLGLDKNATSDDIKKSYRKLALKYHPDKNPDNPEAAVKFKEINNAHAILTDATKRNIYD	0.194 ± 0.082
